Source: patent publication US8715959B2, “Substitution mutant receptors and their use in a nuclear receptor-based inducible gene expression system” (priority 2001, dated 2014)
Where a chain is given by its changes, count along the chain named. Names may count otherwise.

B1: T58A: CfEcR-DEF LBD substitution mutant, Threonine (T) to Alanine (A) (protein, listed as Choristoneura fumiferana)
chain: LTANQQFLIARLIWYQDGYEQPSDEDLKRITQTWQQADDENEESDTPFRQITEMTILAVQLIVEFAKGLPGFAKISQPDQITLLKACSSEVMMLRVARRYDAASDSVLFANNQAYTRDNYRKAGMAYVIEDLLHFCRCMYSMALDNIHYALLTAVVIFSDRPGLEQPQLVEEIQRYYLNTLRIYILNQLSGSARSSVIYGKILSILSELRTLGMQNSNMCISLKLKNRKLPPFLEEIWDV
B2: E20A: CfEcR-DEF LBD substitution mutant, Glutamic Acid (E) to Alanine (A) (protein, listed as Choristoneura fumiferana)
chain: B1 chain with E20A, A58T
B3: T52V: CfEcR-DEF LBD substitution mutant, Threonine (T) to Valine (V) (protein, listed as Choristoneura fumiferana)
chain: B1 chain with T52V, A58T
B4: T52I: CfEcR-DEF LBD substitution mutant, Threonine (T) to Isoleucine (I) (protein, listed as Choristoneura fumiferana)
chain: B1 chain with T52I, A58T
B5: V96A/V107I/R175E: CfEcR-DEF LBD triple mutant, V96A, V107I and R175E (protein, listed as Choristoneura fumiferana)
chain: B1 chain with A58T, V96A, V107I, R175E
B6: V107I: CfEcR-DEF LBD substitution mutant, Valine (V) to Isoleucine (protein, listed as Choristoneura fumiferana)
chain: B1 chain with A58T, V107I
B7: T52A: CfEcR-DEF LBD substitution mutant, Threonine (T) to Alanine (A) (protein, listed as Choristoneura fumiferana)
chain: B1 chain with T52A, A58T
B8: V107I/Y127E: CfEcR-DEF LBD double mutant, Valine (V) to Isoleucine (I) and Tyrosine (Y) to Glutamine (E) (protein, listed as Choristoneura fumiferana)
chain: B1 chain with A58T, V107I, Y127E
B9: V107I/R175E: CfEcR-DEF LBD double mutant, V107I and R175E (protein, listed as Choristoneura fumiferana)
chain: B1 chain with A58T, V107I, R175E
B10: T55A: CfEcR-DEF LBD substitution mutant, Threonine (T) to Alanine (A) (protein, listed as Choristoneura fumiferana)
chain: B1 chain with T55A, A58T
B11: T52L: CfEcR-DEF LBD substitution mutant, Threonine (T) to Leucine (L) (protein, listed as Choristoneura fumiferana)
chain: B1 chain with T52L, A58T
B12: V96A: CfEcR-DEF LBD substitution mutant, Valine (V) to Alanine (A) (protein, listed as Choristoneura fumiferana)
chain: B1 chain with A58T, V96A
B13: V96M: CfEcR-DEF LBD substitution mutant, Valine (V) to Methionine (M) (protein, listed as Choristoneura fumiferana)
chain: B1 chain with A58T, V96M
B14: V96D: CfEcR-DEF LBD substitution mutant, Valine (V) to Aspartic Acid (D) (protein, listed as Choristoneura fumiferana)
chain: B1 chain with A58T, V96D
B15: V107I/YL27E/R175E: CfEcR-DEF LBD triple mutant, V107I, Y127E and R175E (protein, listed as Choristoneura fumiferana)
chain: B1 chain with A58T, V107I, Y127E, R175E
B16: T52A/V107I/R175E: CfEcR-DEF LBD triple mutant, T52A, V107I and R175E (protein, listed as Choristoneura fumiferana)
chain: B1 chain with T52A, A58T, V107I, R175E
B17: Y127E/R175E: CfEcR-DEF LBD double mutant, Y127E and R175E (protein, listed as Choristoneura fumiferana)
chain: B1 chain with A58T, Y127E, R175E
B18: V96T: CfEcR-DEF LBD substitution mutant, Valine (V) to Threonine (T) (protein, listed as Choristoneura fumiferana)
chain: B1 chain with A58T, V96T
B19: R175E: CfEcR-DEF LBD substitution mutant, Arginine (R) to Glutamine (E) (protein, listed as Choristoneura fumiferana)
chain: B1 chain with A58T, R175E
B20: T52V/V107I/R175E: CfEcR-DEF LBD triple mutant, T52V, V107I and R175E (protein, listed as Choristoneura fumiferana)
chain: B1 chain with T52V, A58T, V107I, R175E
B21: V96T/V107I/R175E: CfEcR-DEF LBD triple mutant, V96T, V107I and R175E (protein, listed as Choristoneura fumiferana)
chain: B1 chain with A58T, V96T, V107I, R175E

Test system: CfEcR-DEF
Experiment: GAL4/mutant CfEcR-DEF + VP16/LmUSP-EF GAL4-driven luciferase reporter transactivation in NIH3T3 cells
Assay type: cell-based, Choristoneura fumiferana
Conditions: for Fold increase over WT, 2.5 μM GS™-E: 2.5 μM GS™-E non-steroidal ligand; for Fold increase over WT, 2.5 μM GS™-E / Fold increase over WT, 2.5 μM PonA / Fold increase over WT, 10 nM GS™-E / Fold increase over WT, 10 nM PonA: NIH3T3 cells, relative to Gal4/wild-type CfEcR-DEF switch activity; for Fold increase over WT, 2.5 μM PonA: 2.5 μM PonA steroidal ligand; for Fold increase over WT, 10 nM GS™-E: 10 nM GS™-E non-steroidal ligand; for Fold increase over WT, 10 nM PonA: 10 nM PonA steroidal ligand
Protocol: DNAs corresponding to the various switch constructs outlined in Example 1, specifically switches 1.1-1.13, were transfected into mouse NIH3T3 cells (ATCC) or L57 cells (Dr. Peter Cherbas; Indiana University) as follows. Standard methods for culture and maintenance of the cells were followed. […] Superfect™ (Qiagen Inc.) was used for 3T3 cells and Lipofectamine™ (LifeTechnologies) was used for L57 cells as the transfection reagents. For 12-well plates, 4 μl of Superfect™ or Lipofectamine™ was mixed with 100 μl of growth medium. One μg of reporter construct and 0.25 μg of each receptor construct of the receptor pair to be analyzed were added to the transfection mix. […] The cells were harvested and reporter activity was assayed.
Cells were harvested 40 hours after adding ligands. […] Twenty μl of lysate were assayed.
Briefly, Applicants mutated amino acid residues predicted to be critical for ecdysteroid binding into alanine and created GAL4/mutantCfEcR-DEF cDNA gene expression cassettes as described in Example 1 above using the Quikchange PCR-mediated site-directed mutagenesis kit (Stratagene, La Jolla, Calif.). The mutated and the WT cDNAs were tested in GAL4-driven luciferase reporter assays.
DNAs corresponding to the various switch constructs outlined in Example 1, specifically switches 1.1-1.2, were transfected into mouse NIH3T3 cells (ATCC) as follows. […] Two μl of Superfect™ was mixed with 100 μl of growth medium and 50 ng of either GAL4/wild-type EcR or Gal4/mutant EcR cassette, 50 ng of VP16/LmUSP-EF and 200 ng of pFRLuc were added to the transfection mix. […] The cells were harvested and reporter activity was assayed as described above.

Molecule | Fold increase over WT, 2.5 μM GS™-E | Fold increase over WT, 2.5 μM PonA | Fold increase over WT, 10 nM GS™-E | Fold increase over WT, 10 nM PonA | further results
B1 | 0.8 fold | 0.008 fold | – | – | non-steroid activity (summary of Table 10) (GS™-E, CfEcR-DEF point mutants): not significantly affected; steroid binding activity (summary of Table 10) (PonA, CfEcR-DEF point mutants): essentially eliminated
B2 | 0.9 fold | 0.35 fold | – | – | –
B3 | 17.3 fold | 35.7 fold | – | – | –
B4 | 8 fold | 8 fold | – | – | –
B5 | – | – | 21.1 fold | 1005.1 fold | –
B6 | – | – | 12.4 fold | 26.6 fold | –
B7 | 1.5 fold | 0.5 fold | – | – | –
B8 | – | – | 314.6 fold | 35.8 fold | –
B9 | – | – | 386.4 fold | 1194.4 fold | –
B10 | 1.7 fold | 0.13 fold | – | – | –
B11 | 0.26 fold | 3.4 fold | – | – | –
B12 | 0.35 fold | 408 fold | – | – | –
B13 | 122 fold | 3.37 fold | – | – | –
B14 | 3.07 fold | 3.1 fold | – | – | –
B15 | – | – | 124.3 fold | 122.3 fold | –
B16 | – | – | 2.3 fold | 20.3 fold | –
B17 | – | – | 622.8 fold | 42.2 fold | –
B18 | 0.018 fold | 45 fold | – | – | –
B19 | – | – | 22.0 fold | 11.3 fold | –
B20 | – | – | 62.8 fold | 136.6 fold | –
B21 | – | – | 0.4 fold | 485.7 fold | –
